In article PMC3230118:

Target: Ub-NpuN fusion protein bearing the wild-type N-intein sequence (NpuNWT), C1A (not stated | Nostoc punctiforme) (UniProt P0CG48)
Test: other fluorescence titration

NpuC-SUMO fusion protein bearing the wild-type C-intein sequence (NpuCWT) (domain or fragment)
Kd: 2.9 nM
